Consider one substance from patent publication US20020086018A1.

Experiment [1] concerns the target mBCMA-Fc (soluble murine BCMA-Fc) (mouse). Description: BIAcore 2000; BCMA-Fc immobilised on CM5, Flag-APRIL as analyte, 1:1 Langmuir model. On the technique in general: In SPR one partner is held on a chip, and binding of the other changes the refractive index at the surface.
Experiment [2] addresses huBCMA-Fc (soluble human BCMA-Fc receptor fusion protein) (human). The experiment is described as above.

As for “Soluble murine APRIL-Flag protein (FLAG-tagged soluble mouse G70) (ligand)”, the Kd (as a rule, the constant that tells how readily two partners part at equilibrium) in experiment [1] stood at 0.25 nM; in experiment [2] it was 0.29 nM.
